For one assay, the target named is complement C3 (human). As to the kind of experiment: ELISA; 100 ng of C3, C3b or C3d coated; increasing concentrations of CIP; anti-CIP antibody; apparent Kd as reciprocal of fitted Ka. A general note: In an ELISA, binding on a coated surface is turned into a signal by an enzyme label.
For another assay, the target named is C3b (human) (UniProt P01024). The assay is described as above.
Assay [1] concerns the target C3d (human) (UniProt P01024). The assay is described as above.
Assay [2] addresses C3d (human) (UniProt P01024). Briefly: SPR; BIAcore X100; C3d covalently immobilised on CM5 chip (250 response units); CIP 0.0390-5 μM flowed; PBS with 0.005% Tween 20; 22°C; 1:1 Langmuir model; apparent Kd. For orientation: SPR reads the build-up and loss of mass on a sensor chip optically.
The target in assay [3] is C3d (human) (UniProt P01024). Briefly: SEC; CIP and C3d loaded separately or mixed in equimolar concentration onto a Superdex column; MW from a calibration curve.

Sequence of UniProt P01024 (P01024 1002-1303): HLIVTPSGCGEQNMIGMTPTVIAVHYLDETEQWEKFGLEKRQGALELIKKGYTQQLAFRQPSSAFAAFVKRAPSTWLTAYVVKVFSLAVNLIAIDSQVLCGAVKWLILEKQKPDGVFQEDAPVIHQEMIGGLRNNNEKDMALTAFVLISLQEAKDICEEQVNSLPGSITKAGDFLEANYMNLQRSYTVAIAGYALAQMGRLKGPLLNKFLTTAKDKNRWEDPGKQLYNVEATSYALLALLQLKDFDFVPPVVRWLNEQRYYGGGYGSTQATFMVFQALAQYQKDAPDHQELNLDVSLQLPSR

Regarding “complement interfering protein (CIP) (natural protein)”, the Kd is 84.8 nM with complement C3 (human), 82.4 nM with C3b (human), 76 nM in the assay with C3d (human) [1] and 79 nM with C3d (human) [2]. For the same substance, in the assay with C3d (human) [2], the koff stood at 0.00085 s⁻¹. Moreover, the association rate constant (kon) with C3d (human) [2] stood at 10800 M⁻¹ s⁻¹. Also, the stoichiometry N with C3d (human) [3] worked out at 1.

In general, koff refers to a measure of how fast the partners let go of each other. A word on the kon: it is the rate constant with which the complex forms. The term stoichiometry N denotes the number of molecules, sites or subunits per partner or assembly.

For the origin of these results see PMC6404586.
